Target: T1, MBP-CahR (Pseudomonas putida KT2440) (UniProt Q88GQ3)
T1 sequence: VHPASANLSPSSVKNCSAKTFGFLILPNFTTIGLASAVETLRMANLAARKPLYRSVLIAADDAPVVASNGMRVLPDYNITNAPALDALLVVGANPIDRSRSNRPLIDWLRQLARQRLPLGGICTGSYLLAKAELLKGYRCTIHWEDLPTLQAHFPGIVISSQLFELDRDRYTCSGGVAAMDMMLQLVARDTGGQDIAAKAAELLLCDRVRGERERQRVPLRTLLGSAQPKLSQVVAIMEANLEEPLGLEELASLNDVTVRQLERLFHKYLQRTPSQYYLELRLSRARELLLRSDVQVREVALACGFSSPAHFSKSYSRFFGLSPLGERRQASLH
Assay: EMSA
Details: buffer, not given

Sequence: GTTTGTCCGAGACTTTGTGGCCGCCTGGCAGAAGGTCATGGAGCTGGACCGCTTTGATCTGAAATAGCGTTGCCTGGCGGGGGGGGCGCGCTCAGCGCCCCCTTGGCCAGTGGTTATCCCGCCAATTCCAGGTCGGATAGATACAAAAGTGTCCTCGTCGGTTCTGTTGCAATGCTTCTCAGGCGGCCGGCCTGAACAGCGTGCTCACAACGACAAGGAACCCCGACCATGCAAATGCCCAAGACC (double strand) [creA promoter probe]
- binding: binds

From article doi:10.1101/2021.11.02.466972
